Experiment [1] deals with recombinant fragment of RIIα (RII 1-45). Kind of experiment: SPR (IAsys), gravin 1526-1780 coupled to the cuvette, RIIα 1-45 at 25 to 150 nM.

B1: gravin fragment residues 265-556 (protein)
chain: KEEGEEKQEKEPSKSAESPTSPVTSETGSTFKKFFTQGWAGWRKKTSFRKPKEDEVEASEKKKEQEPEKVDTEEDGKAEVASEKLTASEQAHPQEPAESAHEPRLSAEYEKVELPSEEQVSGSQGPSEEKPAPLATEVFDEKIEVHQEEVVAEVHVSTVEERTEEQKTEVEETAGSVPAEELVGMDAEPQEAEPAKELVKLKETCVSGEDPTQGADLSPDEKVLSKPPEGVVSEVEMLSSQERMKVQGSPLKKLFTSTGLKKLSGKKQKGKRGGGDEESGEHTQVPADSPDS
Consider B1, for which, in the experiment with PKC βII, the IC50 of inhibition of PKC activity toward peptide substrate … came out at 500 nM.

B2: gravin fragment residues 1526-1780 (protein)
chain: VAIEDLEPENGILELETKSSKLVQNIIQTAVDQFVRTEETATEMLTSELQTQAHVIKADSQDAGQETEKEGEEPQASAQDETPITSAKEESESTAVGQAHSDISKDMSEASEKTMTVEVEGSTVNDQQLEEVVLPSEEEGGGAGTKSVPEDDGHALLAERIEKSLVEPKEDEKGDDVDDPENQNSALADTDASGGLTKESPDTNGPKQKEKEDAQEVELQEGKVHSESDKAITPQAQEELQKQERESAKSELTES
One may read the Kd as the equilibrium constant for the complex coming apart. What is called kon is the rate constant with which the complex forms. On to B2, for which, in experiment [1], the Kd came to 100 nM and the kon stood at 160000 M⁻¹ s⁻¹.

Source of the values: patent US6090929.
